# Laboratory results reported in US20240093159A1 (UNIVERSITY OF DUNDEE, published 2024).
# T1: Human IL17RA protein (SinoBiological) (human, UniProt Q96F46 33-320)
# T1 construct: Coated on ELISA plates at 0.25 ug/well; also called IL17RA receptor
# T1 sequence (looked up): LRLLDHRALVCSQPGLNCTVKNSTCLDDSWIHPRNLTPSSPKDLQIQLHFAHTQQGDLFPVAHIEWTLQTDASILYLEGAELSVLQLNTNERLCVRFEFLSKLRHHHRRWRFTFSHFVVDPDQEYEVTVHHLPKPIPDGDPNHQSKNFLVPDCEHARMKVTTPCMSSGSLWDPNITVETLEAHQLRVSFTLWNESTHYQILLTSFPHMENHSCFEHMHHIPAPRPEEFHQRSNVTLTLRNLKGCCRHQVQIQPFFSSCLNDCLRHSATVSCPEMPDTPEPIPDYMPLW
# T2: commercially sourced Im7 linked to Sepharose (UniProt Q03708 1-87, linked to Sepharose resin)
# T2 construct: also called Im7-Sepharose; Im7-agarose
# T2 sequence: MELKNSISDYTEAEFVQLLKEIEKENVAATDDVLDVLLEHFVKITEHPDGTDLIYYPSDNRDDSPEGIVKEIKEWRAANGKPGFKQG
# B1: IL33 purified on Im7-Sepharose and released from ColE7 by TEV protease (ligand)
# chain: GSSIQGTSLLTQSPASLSTYNDQSVSFVLENGCYVINVDKSGKDQEQDQVLLRYYKSPCPASQSGDGVDGKKLMVNMSPIKDTDIWLHANDKDYSVELQRGDVSPPEQAFFVLHKKSSDFVSFECKNLPGTYIGVKDNQLALVEEKDESCNNIMFKLSKI
# B2: ColE7-IL33 fusion (Colicin E7 catalytic domain, linker, TEV site, murine IL-33 C-terminal fragment) (other)
# chain: ESKRNKPGKATGKGKPVNNKWLNNAGKDLGSPVPDRIANKLRDKEFKSFDDFRKKFWEEVSKDPELSKQFSRNNNDRMKVGKAPKTRTQDVSGKATSFALHHEKPISQNGGVYDMDNISVVTPKRAIDIHRGKSGGGSSGSGENLYFQGSSIQGTSLLTQSPASLSTYNDQSVSFVLENGCYVINVDKSGKDQEQDQVLLRYYKSPCPASQSGDGVDGKKLMVNMSPIKDTDIWLHANDKDYSVELQRGDVSPPEQAFFVLHKKSSDFVSFECKNLPGTYIGVKDNQLALVEEKDESCNNIMFKLSKI
# notes: also called ColE7-1L33; ColicinE7-IL33
# Key:
# [1] = molecular target: T1, Human IL17RA protein (SinoBiological); test: receptor binding ELISA, IL17RA coated at 0.25 ug/well
# [2] = molecular target: T2, commercially sourced Im7 linked to …; test: E. coli cytosol incubated with Im7-Sepharose, extensive washing, TEV release, SDS-PAGE
Binder,binding result [1],binding result [2]
B1,no binding,–
B2,–,binds
